Measured values published in patent publication US20240382605A1 (IONIS PHARMACEUTICALS, published 2024).
Read-outs that look alike come from different tables or passages of the source. Each block holds one binder with its values, some of them ahead of it. Starred links: 1 amine or outer side, 2 acyl side, 3 side chain; linkers in the order of their positions; H or OH if unused. Positions of bridges follow the written chain, without caps; N, C: chain ends. Non-standard residues stand in square brackets, D forms with d. No end group written: not given here. *: point of attachment. azidopropyl = N-terminal modification AzPro, [N-]=[N+]=NCCC*; TATB = O=C(C[*:1])N1CN(C(=O)C[*:2])CN(C(=O)C[*:3])C1; oligonucleotide 1590463 = not defined here; Lys(N3) = [N-]=[N+]=NCCCC[C@H](N)C(=O)O; Hyp = O=C(O)[C@@H]1C[C@@H](O)CN1

How the values were obtained:
[1] = molecular target: T1, hCD71-Nluc fusion protein (human, UniProt P02786 1-760); assay: nanoBRET competition, tracer BCY17871-1598988 60 nM, HEK293 hCD71-Nluc membranes
T1 construct: whole, on cells; Used as crude membrane fractions of HEK293 cells stably expressing hCD71-Nluc; also called human transferrin receptor, CD71, fused to NanoLuc; not shown: NanoLuc (ProMega) luciferase joined through its N-terminal Val
T1 sequence (P02786 other isoform, or with tags, fused parts or gaps): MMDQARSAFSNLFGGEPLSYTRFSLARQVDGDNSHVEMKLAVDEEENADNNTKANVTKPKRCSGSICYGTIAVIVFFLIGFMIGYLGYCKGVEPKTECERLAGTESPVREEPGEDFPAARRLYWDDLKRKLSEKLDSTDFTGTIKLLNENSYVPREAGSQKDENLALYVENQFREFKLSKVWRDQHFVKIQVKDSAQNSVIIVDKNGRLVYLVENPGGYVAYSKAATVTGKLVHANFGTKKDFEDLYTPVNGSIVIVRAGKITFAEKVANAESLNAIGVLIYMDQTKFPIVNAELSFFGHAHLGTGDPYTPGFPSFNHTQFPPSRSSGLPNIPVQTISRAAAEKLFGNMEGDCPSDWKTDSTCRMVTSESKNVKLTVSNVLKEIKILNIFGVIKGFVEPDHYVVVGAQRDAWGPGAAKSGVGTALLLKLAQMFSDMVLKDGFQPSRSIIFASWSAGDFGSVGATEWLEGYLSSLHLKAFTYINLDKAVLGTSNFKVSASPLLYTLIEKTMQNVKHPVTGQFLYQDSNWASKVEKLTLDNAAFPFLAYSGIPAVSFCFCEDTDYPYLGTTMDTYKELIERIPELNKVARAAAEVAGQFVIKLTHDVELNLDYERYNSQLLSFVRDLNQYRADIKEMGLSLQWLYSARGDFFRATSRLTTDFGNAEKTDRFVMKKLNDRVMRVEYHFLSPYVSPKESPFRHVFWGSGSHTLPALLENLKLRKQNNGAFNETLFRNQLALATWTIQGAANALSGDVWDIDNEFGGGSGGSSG

CD71 = molecular target: T2, CD71 (Homo sapiens (Human), UniProt P02786 89-760); assay: SPR Biacore X100, conjugate duplexed to biotin-DNA on streptavidin chip, CD71 injected 6.25-100 nM, 1:1 fit
T2 construct: also called transferrin receptor; TfR1
T2 sequence (P02786 89-760 limits assumed, form in doubt): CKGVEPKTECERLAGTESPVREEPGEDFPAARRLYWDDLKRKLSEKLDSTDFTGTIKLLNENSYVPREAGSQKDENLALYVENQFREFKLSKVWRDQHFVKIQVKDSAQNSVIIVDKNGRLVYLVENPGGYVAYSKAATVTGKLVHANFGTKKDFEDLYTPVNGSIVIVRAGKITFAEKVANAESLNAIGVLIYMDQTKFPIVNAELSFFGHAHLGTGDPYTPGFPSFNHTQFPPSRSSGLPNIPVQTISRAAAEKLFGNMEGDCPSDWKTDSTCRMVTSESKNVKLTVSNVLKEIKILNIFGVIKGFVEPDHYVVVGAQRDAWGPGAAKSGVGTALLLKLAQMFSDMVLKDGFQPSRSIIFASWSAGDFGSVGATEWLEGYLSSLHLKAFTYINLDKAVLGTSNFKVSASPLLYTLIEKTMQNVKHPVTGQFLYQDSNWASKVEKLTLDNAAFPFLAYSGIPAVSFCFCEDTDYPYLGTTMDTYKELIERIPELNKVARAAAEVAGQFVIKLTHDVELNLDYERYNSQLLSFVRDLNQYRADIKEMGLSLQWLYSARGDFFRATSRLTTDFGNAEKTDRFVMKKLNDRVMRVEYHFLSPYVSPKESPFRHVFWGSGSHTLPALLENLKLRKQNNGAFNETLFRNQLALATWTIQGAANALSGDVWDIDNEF
Experimental: The binding affinity for each of the following modified oligonucleotides conjugated to CD71 bicycle ligands was tested on a Biacore X100 surface plasmon resonance (SPR) instrument. 200 units of modified oligonucleotides conjugated to CD71 bicycle ligand were immobilized on a streptavidin chip by injecting a 20 nM solution of 5′-Biotin-labeled DNA (5′-Biotin-TEG-DNA complement to modified oligonucleotide) duplexed with modified oligonucleotides conjugated to CD71 bicycle ligand in HBS—P (10 mM HEPES, pH 7.4, 150 mM NaCl, 0.0005% Surfactant P20) running buffer. […] Kinetic and equilibrium binding analysis was performed using Biacore X100 Evaluation Software, applying 1:1 binding fit.

[2] = molecular target: T1, hCD71-Nluc fusion protein; assay: nanoBRET competition, tracer BCY17871-1598988 60 nM, HEK293 hCD71-Nluc membranes; remark: listed apart in the source
Experimental: (§1) The mixtures were incubated for 3 hours at room temperature to reach equilibrium. To initiate BRET, 12.4 μL of 100 μM of the Nluc substrate furimazine was added to each well, and the mixtures were incubated for 5-30 minutes. The assay plate was read on a Promega GlowMax Discover plate reader at wavelengths of 450 nm and 600 nm, and the ratio of emissions at wavelengths 450/600 were used to yield % BRET efficiency. Data was subjected to non-linear regression, then fitted to a single site binding hyperbolic function.
(§2) In order to evaluate modified oligonucleotides conjugated to CD71 bicycle ligands and RNAi compounds conjugated to CD71 bicycle ligands, the assay was modified as follows. […] Modified oligonucleotides were conjugated to the bicycle ligands through a SPAAC reaction These were then added at a range of concentrations in triplicate assays points, and the mixtures were incubated for 3 hours at room temperature. BRET was initiated with the addition of furimazine and the assay was completed as described above.

[3] = molecular target: T1, hCD71-Nluc fusion protein; assay: as above; remark: listed apart in the source
Experimental: as §1, §2

[4] = molecular target: T1, hCD71-Nluc fusion protein; assay: nanoBRET saturation binding, HEK293 hCD71-Nluc membranes, single site fit
Experimental: as §1

[5] = molecular target: T1, hCD71-Nluc fusion protein; assay: nanoBRET competition, tracer BCY17871-1598988 60 nM, HEK293 hCD71-Nluc membranes; remark: listed apart in the source
Experimental: as §1, §2

[6] = molecular target: T1, hCD71-Nluc fusion protein; assay: as above; remark: listed apart in the source
Experimental: as §1, §2

[7] = molecular target: T1, hCD71-Nluc fusion protein; assay: as above; remark: listed apart in the source
Experimental: as §1, §2

[8] = molecular target: T1, hCD71-Nluc fusion protein; assay: as above; remark: listed apart in the source
Experimental: as §1, §2

- Kd [4]: 57 to 58 nM
B4: BCY17871-1598988 (peptide)
peptide: NWNCSPDAHLGCISYCX
modifications: as printed NWNCSPDAHLGCISYC[K(N3)]: N-terminal acetyl; C-terminal amide; three Cys bound to TATB scaffold; [K(N3)] 6-azido lysine at 17 joined by SPAAC to BCN on oligonucleotide 1598988
notes: also called tracer compound

- Ki [5]: 2 nM
B5: 1590463-BCY19407 (peptide)
peptide: CSPDAHLGCISYCEPWGGSGGSX
modifications: not fully specified; as printed CSPDAHLGCISYCEPWGGSGGS[K(N3)]: N-terminal acetyl; C-terminal amidated; three Cys bound to molecular scaffold; [K(N3)] 6-azido lysine at 23 joined via BCN linker to oligonucleotide 1590463
notes: also called Compound No. 1590463 conjugated to BCY19407

- Ki [8]: 3.1 nM
B10: 1591118-BCY17896 (peptide)
peptide: CPXDAYLGCXSYCX
modifications: as printed CP[HyP]DAYLGC[tBuGly]SYC[K(N3)]: N-terminal acetyl; C-terminal amide; three Cys bound to TATB scaffold; [HyP] 4-trans-hydroxy-L-proline at 3; [tBuGly] t-butyl glycine at 10; [K(N3)] 6-azido lysine at 14 joined via BCN linker to oligonucleotide 1591118
notes: also called Compound No. 1591118 conjugated to BCY17896

- Ki [8]: 4.4 nM
B12: 1598988-BCY17901 (peptide)
peptide: CPXDAYLGCXSYCEPWX
modifications: as printed CP[HyP]DAYLGC[tBuGly]SYCEPW[K(N3)]: N-terminal acetyl; C-terminal amide; three Cys bound to TATB scaffold; [HyP] 4-trans-hydroxy-L-proline at 3; [tBuGly] t-butyl glycine at 10; [K(N3)] 6-azido lysine at 17 joined via BCN linker to oligonucleotide 1598988

- Ki [2]: 1 nM
- Ki [6]: 10 nM
B14: 1609732-BCY17873 (peptide)
peptide: CSPDAHLGCISYCEPWX
modifications: not fully specified; as printed CSPDAHLGCISYCEPW[K(N3)]: N-terminal acetyl; C-terminal amide; three Cys bound to TATB scaffold; [K(N3)] 6-azido lysine at 17 joined via BCN linker to oligonucleotide 1609732
notes: also called Compound No. 1609732 conjugated to BCY17873

- Ki [5]: 3 nM
B15: 1590463-BCY19405 (peptide)
peptide: Ac-CSPDAHLGCISYCEPW
modifications: linker 1-9-13 via TATB; not fully specified (C-terminus); printed as CSPDAHLGCISYCEPW[PEG10][K(N3)]; also: azide of C-terminal K(N3) clicked via BCN linker to oligonucleotide 1590463
notes: also called Compound No. 1590463 conjugated to BCY19405

The remaining lines, values behind:

B1: 1590463-BCY17876 (peptide)
peptide: {oligonucleotide 1590463-BCN linker-azidopropyl}-CP[Hyp]DAYLGCISYC-NH2
modifications: linker 1-9-13 via TATB; reading uncertain; also: printed as CP[HyP]DAYLGCISYC
notes: also called Compound No. 1590463 conjugated to BCY17876
- Ki [1]: 29 nM
- Kd (CD71): 95.4 nM

B2: 1590463-BCY17905 (peptide)
peptide: Ac-CSPD[Lys(N3)]HLGCISYC-NH2
modifications: linker 1-9-13 via TATB; not fully specified (residue 5); printed as CSPD[K(N3)]HLGCISYC; also: azide of K(N3) in loop clicked via BCN linker to oligonucleotide 1590463
notes: also called Compound No. 1590463 conjugated to BCY17905
- Ki [2]: 16 nM
- Ki [3]: 148 nM

B3: 1590463-BCY17874 (peptide)
peptide: {oligonucleotide 1590463-BCN linker-azidopropyl}-CSPDAHLGCISYCEPW-NH2
modifications: linker 1-9-13 via TATB; reading uncertain
notes: also called Compound No. 1590463 conjugated to BCY17874
- Ki [1]: 10 nM
- Kd (CD71): 32 nM

B6: 1590463-BCY17903 (peptide)
peptide: Ac-C[Lys(N3)]PDAHLGCISYC-NH2
modifications: linker 1-9-13 via TATB; not fully specified (residue 2); printed as C[K(N3)]PDAHLGCISYC; also: azide of K(N3) in loop clicked via BCN linker to oligonucleotide 1590463
notes: also called Compound No. 1590463 conjugated to BCY17903
- Ki [2]: 24 nM
- Ki [3]: 125 nM

B7: 1590463-BCY17904 (peptide)
peptide: Ac-CS[Lys(N3)]DAHLGCISYC-NH2
modifications: linker 1-9-13 via TATB; not fully specified (residue 3); printed as CS[K(N3)]DAHLGCISYC; also: azide of K(N3) in loop clicked via BCN linker to oligonucleotide 1590463
notes: also called Compound No. 1590463 conjugated to BCY17904
- Ki [2]: 5 nM
- Ki [3]: 31 nM
- Ki [6]: 60 nM

B8: 486178:1614438-BCY17873 (peptide)
peptide: CSPDAHLGCISYCEPWX
modifications: not fully specified; as printed CSPDAHLGCISYCEPW[K(N3)]: N-terminal acetyl; C-terminal amide; three Cys bound to TATB scaffold; [K(N3)] 6-azido lysine at 17 joined via BCN linker to oligonucleotide 1614438 of the duplex 486178:1614438
notes: nucleic acids; also called Compound No. 486178:1614438 conjugated to BCY17873
- Ki [7]: 95 nM

B9: 1590463-BCY17894 (peptide)
peptide: CSPDAHLGCISYCEXWX
modifications: not fully specified; as printed CSPDAHLGCISYCE[Pip]W[K(N3)]: N-terminal acetyl; C-terminal amide; three Cys bound to TATB scaffold; [Pip] pipecolic acid at 15; [K(N3)] 6-azido lysine at 17 joined via BCN linker to oligonucleotide 1590463
notes: also called Compound No. 1590463 conjugated to BCY17894
- Ki [2]: 1 nM
- Ki [3]: 8 nM
- Ki [6]: 10 nM

B11: 1590463-BCY17890 (peptide)
peptide: CSPDAHLGCISYCEXWX
modifications: not fully specified; as printed CSPDAHLGCISYCE[dP]W[K(N3)]: N-terminal acetyl; C-terminal amide; three Cys bound to TATB scaffold; [dP] D-proline at 15; [K(N3)] 6-azido lysine at 17 joined via BCN linker to oligonucleotide 1590463
notes: also called Compound No. 1590463 conjugated to BCY17890
- Ki [2]: 2 nM
- Ki [3]: 17 nM
- Ki [6]: 20 nM

B13: 1590463-BCY17901 (peptide)
peptide: CPXDAYLGCXSYCEPWX
modifications: not fully specified; as printed CP[HyP]DAYLGC[tBuGly]SYCEPW[K(N3)]: N-terminal acetyl; C-terminal amide; three Cys bound to TATB scaffold; [HyP] 4-trans-hydroxy-L-proline at 3; [tBuGly] t-butyl glycine at 10; [K(N3)] 6-azido lysine at 17 joined via BCN linker to oligonucleotide 1590463
notes: also called Compound 1590463-BCY17901; Compound No. 1666846
- Ki [2]: 0.3 nM
- Ki [3]: 1 nM
- Ki [6]: 1 nM

B16: 1590463-BCY17879 (peptide)
peptide: CSXDAHLGCISYCX
modifications: not fully specified; as printed CS[Aze]DAHLGCISYC[K(N3)]: N-terminal acetyl; C-terminal amide; three Cys bound to TATB scaffold; [Aze] azetidine at 3; [K(N3)] 6-azido lysine at 14 joined via BCN linker to oligonucleotide 1590463
notes: also called Compound No. 1590463 conjugated to BCY17879
- Ki [1]: 25 nM
- Kd (CD71): 31.2 nM

B17: 1590463-BCY17896 (peptide)
peptide: CPXDAYLGCXSYCX
modifications: not fully specified; as printed CP[HyP]DAYLGC[tBuGly]SYC[K(N3)]: N-terminal acetyl; C-terminal amide; three Cys bound to TATB scaffold; [HyP] 4-trans-hydroxy-L-proline at 3; [tBuGly] t-butyl glycine at 10; [K(N3)] 6-azido lysine at 14 joined via BCN linker to oligonucleotide 1590463
notes: also called Compound No. 1590463 conjugated to BCY17896
- Ki [2]: 1 nM
- Ki [3]: 2 nM
- Ki [6]: 2 nM
